Source: the nanobody polyreactivity screen of Harvey et al. (2022)

Assay: yeast display, Sf9 membrane polyspecificity reagent, FACS + sequencing; frameworks hold sequencing errors
How it was run: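 Polyreactivity labels are assigned by the sorting gate from which each nanobody was recovered. The gates were low and high (top ~1%), set on anti-HA fluorescence for expression and streptavidin fluorescence for reagent binding. Before sorting, galactose-induced (36–48 hours) yeast display cells were stained for 1 hour at 4 °C with 10% biotinylated, detergent-solubilized Sf9 membrane reagent.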

Sequence	polyreactivity (PSR sort gate)
QVQLVESGGGLVQAGGSLRLSCAATGRIFDYNVMGWSRQAPGKERELVADINGCGGRTNYADSVKGRFTISRDNAKNSVYLQMNSLKPEDTAVYDCAAEWYSYGARSSYGGSRNDYWGQGSQVTVSS	low polyreactivity
QVQLVESGGGLVQAGGSLRLSCAASGSTFFSNAMGRYRQAPGKERELVAAISWSGGSTYYADSVKGRFTISRDNAKNTVYLKLNSLKPEDTAVYYCGADYYGYWYDFEGDHWGQGTQVTVSS	low polyreactivity
QVQLVESGGGLVQAGGSLRLSCAASGSTFWSYAMGWYRQAPGKERELVADIRWSGDGTYYADSVKGRFTISRDNAKITVYLQMNSLKPEDTAVYYCAADYFPVNSYGYWGQGTQVTVSS	low polyreactivity
QVQLVESGGGLVQAGCSLRLSCAASGFIFTTYAMGWYRQEPGKERELVAAISGRGGTTYYADSVKGRFTISLDTAKNTVYLQMNSLKPEDTAVYYCAADGYPGDDYWGQGTQVTVSS	high polyreactivity
QVQLVESGGGLVQAGGSLRLSCAASGFTLYFYAMGWYRQAPGKERELVATITGSGGSTTYADSVKGRFTISRDNAKNTVYLQMNRLKPEDTAVSYCAAVRVVRASRYQTYHWQPGYCYWGQGTQVTVSS	high polyreactivity
QVQLVESGGGLVQAGGSLRLSCAASGSIFYSYAMGWYRQAPGKERELVAAISRSGVSTYYADSVKGRFTISRDNAKNTVYLQMNSLKPEDTAVYYCASPYFVSYQGYDYWGQGTQVTVSS	high polyreactivity
QVQLVESGGGLVQAGGSLRLICAASGFIFDAYAMGWYRQAPGKERELVAAISRTGGSTYYADSVKGRFTISRDNAKNTVYLQMNSLKPEDTAVYYCTAYKSHDDYYWGQGTQITVSS	high polyreactivity
QVQLVESGGGLVQAGGSLRLSCAASGFIFRIYAMGWYRQAPGKERELVAAITWDGVSTYYADSVKGRFTISRDNAKNTVYLQMNSLKPEDTAVYYCAARKRSYPYYYWGQGTQVTVSS	high polyreactivity
QVQLVESGGGLVQAGGSLRLSCAASGSIFLNNAMGWYRQAPGKERELVAAITRNVGSTYYADSVKGRFTISRDNEKNTVYLQMNSLKPEDTAVYYCAADRRRRYDYWGQGTQVTVSS	low polyreactivity
QVQLVESGGGLVQAGGSLRLSCAASGSIFIPYAMGWYRQAPGKERELVAAISGSGTSTNYADSVKGRFTISRDNAKNTVYLQMNSLKPEDTAVYYCAARLPYGYLRSKFYYWGQGTQVTVSS	high polyreactivity
QVQLVESGGGLVQAGGSLRLSCAASGRTFDGNVMGWNRQAPGKERELVAAITASGGRTYYADSVKGRFTISRDNANNTVYIEMNSLNPEDTAVYYCAARIYRVYYVHFAPYYYWGQGTQVTVSS	high polyreactivity
QVQLVESGGGLVQAGGSLRLSCAASGSIFSINAMGWYRQAPGKERELVAAISASGGSTYYADSVKGRFTISRDNAKNTVYLQMNSLKPEDTAVYYCAAEGSPTGYDYWGQGTQVTVSS	low polyreactivity
QVQLVESGGGLVQAGGSLRLSCAASGSIFLSNAIGWYRQAPGKERELVADIDWTGGDTYYADSVKGRFTISRDNAKNTVYLQMNSLKPEDTAVYYCASDYGYRNLLTEYGYWGQGTKVTVSS	low polyreactivity
QVQLVESGGGLVQAGGSLRLSCAASGSTFWAYAMGWSRQAPGKERELVAAITSGGSTYADSVKGRFTISRDNAKNTVYLQMNSLKPEDTAVYYCAADVYYSGWWFDYWGQGTQVTVSS	high polyreactivity
QVQLVESGGGLVQAGGSLRLSCAASGFTFRINAMGWYRQAPGKERELVAVITGSGTSTYYADSVKGRFTISRDNAKNTVYLQMNSLKPEDTAVYYCAKRGFISQKYYYWGQGTQGTVSS	high polyreactivity
QVQLVESGGGLVQAGGSLRLSCAASGSTFASNVMGWYRQAPGKERELVAAISRSGGNTYYADSVKGRFTISRDIAKNTVYLQMNSLKPEDTAVYYCAKYPFTRISYDYWGQGTLVTVSS	high polyreactivity
QVQLVESGGGLVQAGGSLRLSCAASGSTFTRNAMGWYRQAPGKERELVATISSGGSTNYADSVKGRFTISRDNAKNTVYLQMNSLKPEDTAVYYCDKRSLYRYYYWGQGTQVTVSS	high polyreactivity
QVQLVESGGGLVQAGRSLRLSCAASGFTFGYYAMGWYRQPPGKERELVAAISWNGGRTYYADSVKGRFTISRDNAKNTVYLQMISLKPEDTAVYYCAADYRFYSPTQYTYDYWGQGTQVTVSS	high polyreactivity
QVQLLESGGGLVQAGGSLRLSCAASGNLFHVNAMGWYRQAPGKERELVASISRRGGSTNYADSVKGRFTISRANAKNTVYLQMNSLKPEDTAVYYCATRLTSAVGRYLYDFGYWGQGTQVTVSS	high polyreactivity
QVQLVESGGGIVQAGGRLRLSCAASGSTFPSKAMGWYRQAPGKERELVAAISRGGTTNYADSVKGRFTISRDNAKNTVYLQMNSLKPEDTAVYYCAKVYKLYWYKAYRRDYWGQGTQVTVSS	high polyreactivity

Sequence	polyreactivity (PSR sort gate)
QVQLVESGGGLVQAGGSLRLSCAASGFTFQYNAMGWYRQAPGKERELVAGISRSGANTYYADSVKGRFTISRDTAKNTVYLQMNSLKPEDTAVYYCNNLTSRVGPDEYDYWGQGTQVTVSS	high polyreactivity
QVQLVESGGGLVQAGGRLRLSCAASGSTFFKYDMGWYRQAPGKERELVAVITWSGGTTFYADSVKGRFTISRDNAKNTVYLQMNSLKPEDTAVYYCAADYYGYRYDYWGQGTQVTVSS	low polyreactivity
QVQLVESGGGLVQAGGSLRLSCAASGRTFVRNAMGWYRQAPGKERELVAAISSSGGSTYYADSVKGRFTISRDNAKNTVYLQMNSLKPEDTAVYYCAARSAFYYTYRSHYGWGMDYWGQGTQVTVSS	high polyreactivity
QVQLVDSGGGLVQAGGSLRLSCAASGRIFQQNAMGWYRQAPGKERELVAAISWRGTSTYYADSVKGRFTISRDNAKNTVYLQMNSLKPEDTAVYYCAAQGYAYTLVAKVYRWYEYAYWGQGTQVTVSS	high polyreactivity
QVQLVESGGGLVQAGGSLRLSCAASGNTFVSNAMGWYRQAPGKERELVAAIDSGGSTNYADSVKGRFTISRDNAKNTVYLQMNRLKPEDTAVYYCNRTSVYYYYWGQGTQVTVSS	low polyreactivity
QVQLVESGGGLVQAGGSLRLSCAASGSTFYYYAMGWYRQAPGKERELVASITTGGGSTYYADSVKGRFTISRDNAKNTFYLEMNSLKPEDTAVYYCAAALSYYFWWYDYLGQGTQVTVSS	low polyreactivity
QVQLVESGGGLVQAGGSLRLSCAASGRIFNWYRMGWYRQAPGKERELVAAISRGGGRTYYADSVKGRFTISRDNAKNTVYLQMNSLKPEDTAVYYCNAVDASHAGPVGGAFRYDYWGQGTQVTVSS	high polyreactivity
EEELVESGGGLVQAGGSLRLSCAASGSTFLVYAMGWYRQAPGKERELVAVITYSTVRTYYADSVKGRFTISRDNAKNTVYLQMNSLKPEDTAVYYCNADIEFAVLGQGMDYWGQGTQVTVSS	low polyreactivity
QVQLVESGGGLVQAGGSLRLSCAASGRIFPANVMGWYRQAPGKERELVATIDNGGGTYYADSVKGRFTISRDNAKNTVYLQMNSLKPEDTAVYYCARDRHVRWGLKMDYWGQGTQVTVSS	low polyreactivity
QVQLVESGGGLVQAGGSLRLSCAASGFTFTLYAMGWYRQAPGKERELVAAISWNGSTYYADSVKGRFTISRDNAKNTVYLQMNSLKPEDTAVYYCNADVWISYNNAYVTLDYWGQGTQVTVSS	high polyreactivity
QVQLVESGGGLVQAGGSLRLSCAASGSIFGTNAMGWYRPAPGKERELVAAINWSGGTTYYADSVKGRFTISRDIAKNTVYLQMNSLKPEDTAVFYCNVGYPSIYDYWGQGTQVTVSS	low polyreactivity
QVQLVESGGGLVQAGGSLRLSCAASGRIFDLNAMGWYRQAPGKERELVAAISYSGDRTYYADSVKGRFTISRDNAKNTVYLQMNSLKPEDTAVYYCNVRKTWYGYSVTGRYDYWGQGTQVTVSS	low polyreactivity
QVQLVESGGGLVQAGGSLRLSCAASGFTFIYYAMGWYRQARGKERELVAAISRGDSTYYADSVKGRFTISRDNAKNTVYLQMISLKPEDTAVYYCAAASHVRRDHGYWGEGTQVTVSS	low polyreactivity
QVQLVESGGGLVQAGGSLRLSCAASGNIFVTYAMGWYRQAPGKERELVAGITSSDDSTYYADSVKGRFTISRDNAKNTVYLQMNSLKPEDPAVYYCATYYWEVGIGQYYYWGQGTQVTVSS	low polyreactivity
QVQLVESGGGLVQAGGSLRLSCAASGRTFLSYAMGWYRQAPGKERELVAAITSSGGTTNYADSVKGRFTISRDNAKNTVYLQMNSLKPEDTAVYYCAAYSWYFGSRYDYWGQGTQVTVSS	low polyreactivity
QVQLVESGGGLVQAGGSLRLSCAASGSTFGYNDMGWYRQAHGKERELVAVIDSGGSTNYADSVKGRFTISRDNAKNTVYLQMNSLKPEDTAVYYCAADRDKGNGADVWYGYDYWGQGTQVTVSS	low polyreactivity
QVQLVESGGGLVQAGGSLRLSCAASGFTFYSYARGWYRQAPGKERELVAVINSSGGRTFYADSVKGRFTISRDNAKNTVYLQMNSLKPEDTAVYYCAARYAASRGPNQGKGNYWGQGTQVTVSS	high polyreactivity
QVQLVESGGGLVQAGGSLRLSCAASGRTFGVNAMGWYRQAPRKERELVAAINRGGSTYYADSVKGRFTISRDNAKNTVYLQMISLNPEDTAVYYCAAYVSAVHGISGYWGQGTQVTVSS	low polyreactivity
QVQLVESGGGLVQAGGSLRLSCAASGRTLSRYTMGWYRQAPGKERELVAAISTSGSTYYADSVKGRFTISRDNAKNTVYFQMNSLKPEDTAVYYCNAVRRFLQYATGYDYWRQGTQVTVSS	high polyreactivity
QVQLVESGGGLVQAGGSLRLSCAASGRTLTIYAMGWYRQAPGKERELVATIRSSGSTNYADSVKGRFTISRDNAKNTVYLQMNSLKPEDTAVYYCSARGFYPTNVGKYNYWGQGTQVTVSS	high polyreactivity
